Assay results: patent US20100298217A1 (published 2010)

Assays:
[1] = biological target: T1, mouse CSF-1R C432S/C439S mutant expressed on M-/- macrophages (M-/-.C432/439SCSF-1R cells) (mouse, UniProt P09581 20-977); test: CSF-1 binding to upregulated cells carrying the receptor, FIG. 14
T1 construct: Full-length mutant receptor, retrovirally transduced into MacCsf1r-/- cells; also called mutant CSF-1R
T1 sequence: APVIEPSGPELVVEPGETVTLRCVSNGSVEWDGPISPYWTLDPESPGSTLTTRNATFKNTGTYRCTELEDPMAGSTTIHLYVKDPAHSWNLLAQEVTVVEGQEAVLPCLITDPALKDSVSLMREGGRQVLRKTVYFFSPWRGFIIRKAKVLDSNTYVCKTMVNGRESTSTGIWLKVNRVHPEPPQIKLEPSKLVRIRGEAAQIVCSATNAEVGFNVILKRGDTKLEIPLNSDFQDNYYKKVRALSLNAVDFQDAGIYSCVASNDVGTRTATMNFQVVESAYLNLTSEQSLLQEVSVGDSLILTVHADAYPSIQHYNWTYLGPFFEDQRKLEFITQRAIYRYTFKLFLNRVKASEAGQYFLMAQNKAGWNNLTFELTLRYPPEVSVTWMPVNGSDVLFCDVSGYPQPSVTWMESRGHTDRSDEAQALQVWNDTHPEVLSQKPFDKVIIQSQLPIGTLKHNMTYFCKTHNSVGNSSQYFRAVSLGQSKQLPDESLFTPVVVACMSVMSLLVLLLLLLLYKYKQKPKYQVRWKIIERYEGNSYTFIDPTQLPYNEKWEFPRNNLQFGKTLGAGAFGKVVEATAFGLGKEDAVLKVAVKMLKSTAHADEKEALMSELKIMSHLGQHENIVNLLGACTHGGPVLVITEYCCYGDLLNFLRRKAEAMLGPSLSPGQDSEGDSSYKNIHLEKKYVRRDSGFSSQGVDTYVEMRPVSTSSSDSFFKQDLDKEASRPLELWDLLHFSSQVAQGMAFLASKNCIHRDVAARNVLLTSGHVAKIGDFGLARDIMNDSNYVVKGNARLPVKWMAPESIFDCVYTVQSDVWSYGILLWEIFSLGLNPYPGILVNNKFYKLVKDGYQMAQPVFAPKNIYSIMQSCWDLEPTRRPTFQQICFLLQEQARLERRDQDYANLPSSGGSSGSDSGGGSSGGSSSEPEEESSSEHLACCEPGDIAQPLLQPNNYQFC

[2] = biological target: T1, mouse CSF-1R C432S/C439S mutant …; test: cell-based or functional assay

maximum CSF-1 binding relative to WT CSF-1R [1]: ~70%
fold decrease in CSF-1-induced tyrosine phosphorylation and ubiquitination of cells starved of CSF-1 for 24 h [2]: ~5 fold
B1: purified human recombinant CSF-1 (ligand, UniProt P09603 36-253, looked up)
chain: SEYCSHMIGSGHLQSLQRLIDSQMETSCQITFEFVDQEQLKDPVCYLKKAFLLVQDIMEDTMRFRDNTPNAIAIVQLQELSLRLKSCFTKDYEEHDKACVRTFYETPLQLLEKVKNVFNETKNLLDKDWNIFSKNCNNSFAECSSQDVVTKPDCNCLYPKAIPSSDPASVSPHQPLAPSMAPVAGLTWEDSEGTEGSSLLPGEQPLHTVDPGSAKQRP
notes: also called human CSF-1; colony stimulating factor-1
